Assay [1] addresses T1, cynomolgus monkey FOLR1 (on JTC-12 cells) (cynomolgus monkey, UniProt P15328 25-234 (human entry)).
T1 construct: Endogenous FOLR1 of the cynomolgus monkey kidney-derived cell line JTC-12; also called CyFOLR1
The assay is described as follows: flow cytometry on cynomolgus monkey kidney-derived cell line JTC-12. As for the experimental part:
Subsequently, the cells were seeded in a 96-well plate at a density of 2×10⁵ cells/well, followed by centrifugation at 1500 rpm for 1 minute. After the supernatant was discarded, 50 μL of RA15-7 culture supernatant was added to each well, and allowed to react at 4° C. for 30 minutes.
Cells were washed, and then Alexa488-labeled anti-rat IgG(H+L) polyclonal antibody (Invitrogen) diluted in 1% BSA/PBS was added thereto, and they were allowed to react at 4° C. for 30 minutes. The cells were washed again, and then suspended in 1% BSA/PBS, and fluorescent intensity was analyzed by flow cytometry.
In the same manner, the reactivity of the RA15-7 culture supernatant to cynomolgus monkey kidney-derived cell line JTC-12 (RCB1485, RIKEN CELL BANK) was also analyzed by flow cytometry.

In assay [2] the target is T2, cynomolgus monkey FOLR1-Fc (cynomolgus monkey; human).
T2 construct: Expressed in CHO/Ms704 cells; also called CyFOLR1-Fc; not shown: Human IgG1 Fc (Hinge region and CH2-CH3 region) from pKANTEX93, added to the C-terminus
T2 sequence (chain, as listed by the source): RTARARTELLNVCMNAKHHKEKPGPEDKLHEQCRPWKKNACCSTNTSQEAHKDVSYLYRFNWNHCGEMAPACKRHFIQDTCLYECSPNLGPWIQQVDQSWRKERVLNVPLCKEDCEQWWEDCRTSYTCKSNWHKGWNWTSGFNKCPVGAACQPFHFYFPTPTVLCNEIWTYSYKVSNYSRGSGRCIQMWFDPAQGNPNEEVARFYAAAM
Description: ELISA: antibody captured by anti-rat IgG, Fc fusion added, anti-human IgG-POD. As for the experimental part: Each well was washed with PBS, and then 100 μL/well of 1% BSA/PBS was added at room temperature for 1 hour for blocking. Each well was washed with PBS again, and 50 μL/well of the RA15-7 culture supernatant was added, and allowed to react at room temperature for 1 hour. Each well was washed with 0.05% tween20/PBS, and 50 μL/well of FOLR1-Fc, FOLR2-Fc, FOLR3-Fc, and cynomolgus monkey FOLR1-Fc which were diluted in 1% BSA/PBS were added, and allowed to react at room temperature for 1 hour.
Each well was washed with 0.05% tween20/PBS, and then 50 μL/well of Goat anti-human IgG(H+L)-POD (American Qualex) which was diluted 2000-fold in 1% BSA/PBS was added and allowed to react at room temperature for 1 hour. Each well was washed with PBS, and then 50 μL/well of ABTS substrate solution was added, and allowed to react at room temperature. After sufficient color development was confirmed, 50 μL/well of 5% SDS solution was added to terminate the reaction, and absorbance at 415 nm was measured.

Assay [3] deals with T3, FOLR1-mycHis (human, UniProt P15328 25-233).
T3 construct: Secreted from CHO/DG44 cells, purified on Ni-NTA; Residues 1-233 include the native signal peptide; also called non-reducing FOLR1-mycHis; recombinant protein having myc and His tag at the C-terminus of FOLR1 (1-233 amino acids); not shown: myc and His tag at the C-terminus
T3 sequence (P15328 25-233): as the sequence (chain, as listed by the source) above, with T2I, R4W, K37R, P146A, Y171H counted along it
Description: SPR (Biacore T100), antibody of the supernatant captured on CM5 chip, FOLR1-mycHis as analyte, single-cycle kinetics, 1:1 binding model. The text has this:
After cloning, the hybridoma culture supernatant was used to measure its affinity for FOLR1 by a surface plasmon resonance method. As instruments for measurement, Biacore T100 (GE Healthcare), and CM5 chip (GE Healthcare) were used. First, Mouse Antibody Capture Kit (GE Healthcare) was immobilized onto the CM5 chip by amine coupling.
Subsequently, the hybridoma culture supernatant was applied using HBS-EP+buffer (GE Healthcare), and the antibodies contained in the supernatant were captured on the CM5 chip. Subsequently, FOLR1-mycHis prepared by five-step dilution (188, 375, 750, 1500, 3000 ng/mL) was applied as an analyte.
(§1) The affinity was analyzed from association constant (Ka) and dissociation constant (Kd) by Single-cycle kinetics. Kinetic constants (ka, kd, KD) were calculated by 1:1 binding model using a Biacore T-100 Evaluation software (GE Healthcare).

Assay [4] addresses T3, FOLR1-mycHis. Description: SPR (Biacore T100), antibody captured with Human Antibody Capture Kit, FOLR1-mycHis as analyte, 1:1 binding model. The protocol: as §1
(§2) The affinities of ChRA15-7Acc antibody and MORAb-003 antibody for FOLR1 were measured by a surface plasmon resonance method. The measurement was carried out in the same manner as in Example 16, except that a Human Antibody Capture Kit (GE Healthcare) was immobilized onto the CM5 chip by amine coupling and FOLR1-mycHis prepared by five-step dilution (12.3, 37, 111, 333, 1000 ng/mL) was applied as an analyte.

Assay [5] concerns the target T4, Rat4-FOLR1-mycHis (human with a rat segment).
T4 construct: also called rat/human chimeric FOLR1-mycHis (human 91-95 replaced by rat 89-93)
Description: ELISA, antigen coated at 10 µg/mL, antibody 14-10000 ng/mL; white circle indicates that reaction occurred. The protocol:
(§3) First, each 50 μL/well of FOLR1-mycHis, Rat1-FOLR1-mycHis, Rat2-FOLR1-mycHis, and Rat4-FOLR1-mycHis which were prepared at a concentration of 10 μg/mL using PBS was […] in a 96-well plate for ELISA, and then incubated at 4° C. overnight. Each well was washed with PBS, and then 200 μL/well of 1% BSA/PBS was added at room temperature for 1 hour for blocking.

The target of assay [6] is T5, Rat2-FOLR1-mycHis (human with a rat segment).
T5 construct: also called rat/human chimeric FOLR1-mycHis (human 55-62 replaced by rat 53-60)
T5 sequence (chain, as listed by the source limits assumed): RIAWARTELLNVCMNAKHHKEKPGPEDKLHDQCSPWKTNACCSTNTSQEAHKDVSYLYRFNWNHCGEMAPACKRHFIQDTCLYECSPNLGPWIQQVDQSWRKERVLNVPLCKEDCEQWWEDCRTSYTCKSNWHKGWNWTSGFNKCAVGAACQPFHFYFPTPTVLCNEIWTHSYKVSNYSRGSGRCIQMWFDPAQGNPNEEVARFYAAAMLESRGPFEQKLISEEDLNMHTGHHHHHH
The assay is described as follows: ELISA, antigen coated at 10 µg/mL; x indicates that no reaction occurred.

The target of assay [7] is T2, cynomolgus monkey FOLR1-Fc. The assay is described as follows: ELISA, antigen coated at 2 ug/mL, antibody 1.4-1000 ng/mL, goat anti-human kappa-HRP, ABTS, absorbance at 415 nm [d]. As for the experimental part:
First, each 50 μL/well of FOLR1-Fc, FOLR2-Fc, FOLR3-Fc, and cynomolgus monkey FOLR1-Fc which were prepared at a concentration of 2 μg/mL using PBS was added in a 96-well plate for ELISA and incubated at 4° C. overnight. It was washed with PBS, and then 200 μL/well of 1% BSA/PBS wad added at room temperature for 1 hour for blocking. It was washed with PBS again, and each 50 μL/well of HuRA15-7CTDF antibody, ChRA15-7DF antibody, MORAb-003DF antibody, and defucosylated anti-DNP human IgG1 (DNPDF) antibody as a negative control which were prepared by seven-step dilution (1.4, 4.1, 12, 37, 111, 333, 1000 ng/mL) in 1% BSA/PBS was added, and allowed to react at room temperature for 1 hour.
Each well was washed with 0.05% tween20/PBS, and then 50 μL/well of Goat anti-Human kappa-HRP (Southern Biotech) which was diluted 2000-fold using 1% BSA/PBS was added and allowed to react at room temperature for 1 hour. Each well was washed with PBS, and then 50 μL/well of ABTS substrate solution was added, and allowed to react at room temperature. After sufficient color development was confirmed, 5% SDS solution was added to terminate the reaction, and absorbance at 415 nm was measured.

The target of assay [8] is T4, Rat4-FOLR1-mycHis. Description: ELISA as in Example 35, antigen coated; white circle indicates that reaction occurred. The protocol: as §3
(§4) In the same manner as in Example 35, reactivities of ChRA15-7Acc antibody, MORAb-003 antibody, MOv18 antibody, and HuRA15-7CTAcc antibody were evaluated using FOLR1-mycHis prepared in Example 11 and Rat1-FOLR1-mycHis, Rat2-FOLR1-mycHis, Rat4-FOLR1-mycHis prepared in Example 34.

Assay [9] has as its target T5, Rat2-FOLR1-mycHis. The assay is described as follows: ELISA as in Example 35, antigen coated; x indicates that no reaction occurred. As for the experimental part: as §3, §4
In assay [10] the target is T3, FOLR1-mycHis. Description: SPR as in Example 29, antibody captured, FOLR1-mycHis as analyte, 1:1 binding model. The protocol: as §2
In the same manner as in Example 29, affinity of HuRA15-7CTAcc antibody for FOLR1 was measured by the surface plasmon resonance method.

T4 sequence (chain, as listed by the source limits assumed): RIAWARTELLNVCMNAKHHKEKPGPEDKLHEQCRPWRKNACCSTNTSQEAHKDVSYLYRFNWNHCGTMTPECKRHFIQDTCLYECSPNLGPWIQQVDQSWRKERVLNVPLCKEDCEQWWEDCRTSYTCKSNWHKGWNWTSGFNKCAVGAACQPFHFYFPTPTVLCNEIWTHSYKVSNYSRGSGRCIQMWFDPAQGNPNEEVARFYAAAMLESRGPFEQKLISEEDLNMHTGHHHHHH
T1 sequence (P15328 other isoform, or with tags, fused parts or gaps limits assumed): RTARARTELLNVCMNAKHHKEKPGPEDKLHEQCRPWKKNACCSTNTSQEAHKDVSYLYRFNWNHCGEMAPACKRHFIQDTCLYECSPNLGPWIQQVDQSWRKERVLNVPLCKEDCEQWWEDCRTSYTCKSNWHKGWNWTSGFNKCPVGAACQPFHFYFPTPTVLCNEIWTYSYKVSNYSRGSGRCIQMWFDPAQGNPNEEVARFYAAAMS

B1: RA15-7 antibody (antibody, V domains shown)
VH: EVKLLESGGGLVQPGGSMRLSCAASGFTFTDFYMNWIRQPAGKAPEWLGFIRNKANGYTTEFNPSVKGRFAISRDNTQNMLYLQMNTLRAEDTATYYCARCLYGYAYYYVMDAWGQGTSVTVSS
VL: DIQMTQSPASLSASLGETVTIECRTSEDIFRNLAWYQQRPGNSPQLLIYDTNRLADGVPSRFSGSGSGTQYSLKINSLQSEDVAGYFCQQYDNYPLTFGSGTKLEIK
notes: also called antibody contained in the RA15-7 culture supernatant; culture supernatant of hybridoma RA15-7 clone
For the molecule B1, the binding result in assay [1] and in assay [2] was “binds” in each case. Also, the dissociation constant (Kd) in the assay with FOLR1-mycHis [3] was 1.9 nM.

B2: ChRA15-7Acc antibody (antibody, human IgG1, V domains shown)
VH: EVKLLESGGGLVQPGGSMRLSCAASGFTFTDFYMNWIRQPAGKAPEWLGFIRNKANGYTTEFNPSVKGRFAISRDNTQNMLYLQMNTLRAEDTATYYCARCLYGYAYYYVMDAWGQGTSVTVSS
VL: DIQMTQSPASLSASLGETVTIECRTSEDIFRNLAWYQQRPGNSPQLLIYDTNRLADGVPSRFSGSGSGTQYSLKINSLQSEDVAGYFCQQYDNYPLTFGSGTKLEIK
notes: Defucosylated, made in CHO/Ms704 cells; also called CDC enhancement technology-applied defucosylated ChRA15-7; rat/human chimeric RA15-7
In the assay with FOLR1-mycHis [4], B2 returned a Kd of 0.57 nM and a koff of 0.001 s⁻¹. Further, the binding result with Rat4-FOLR1-mycHis [5] is “binds”. The binding result in the assay with Rat2-FOLR1-mycHis [6] was “no binding (tested: up to 10000 ng/mL)”.

B3: HuRA15-7CTDF antibody (antibody, human IgG1, V domains shown)
VH: EVQLVESGGGLVQPGGSLRLSCAASGFTFTDFYMNWVRQPPGKAPEWLGFIRNKANGYTTEFNPSVKGRFTISRDNSKNSLYLQMNSLKTEDTATYYCARTLYGYAYYYVMDAWGQGTLVTVSS
VL: DIQMTQSPSSLSASLGDRVTITCRTSEDIFRNLAWYQQKPGKAPKLLIYDTNRLADGVPSRFSGSGSGTDYTLTISSLQPEDFATYFCQQYDNYPLTFGQGTKLEIK
notes: defucosylated, made in CHO/Ms704 cells; also called defucosylated HuRA15-7CT
As to B3, the binding result in [7] is given as “binds”.

B4: HuRA15-7CTAcc antibody (antibody, human IgG1, V domains shown)
VH: EVQLVESGGGLVQPGGSLRLSCAASGFTFTDFYMNWVRQPPGKAPEWLGFIRNKANGYTTEFNPSVKGRFTISRDNSKNSLYLQMNSLKTEDTATYYCARTLYGYAYYYVMDAWGQGTLVTVSS
VL: DIQMTQSPSSLSASLGDRVTITCRTSEDIFRNLAWYQQKPGKAPKLLIYDTNRLADGVPSRFSGSGSGTDYTLTISSLQPEDFATYFCQQYDNYPLTFGQGTKLEIK
notes: Defucosylated, made in CHO/Ms704 cells; also called CDC enhancement technology-applied defucosylated HuRA15-7CT
As for B4, the binding result with Rat4-FOLR1-mycHis [8] was “binds”. Also, the binding result with Rat2-FOLR1-mycHis [9] is given as “no binding (tested: up to 10000 ng/mL)”. For the same molecule, in the assay with FOLR1-mycHis [10], the dissociation constant (Kd) is 0.65 nM and the koff was found to be 0.00108 s⁻¹.

These data come from patent US20160060340A1 (Kyowa Kirin, published 2016).
